Data from paper PMC11189427 (Scientific Reports, 2024).
“And” between values parts separate entries of the source, which are not always exact repeats. Equal entries are not always repeated.

Molecular target: the molecule itself
Experiment: cryo-EM structure

B1: Hendra henipavirus nucleoprotein (natural protein)
chain: MSDIFDEAASFRSYQSKLGRDGRASAATATLTTKIRIFVPATNSPELRWELTLFALDVIRSPSAAESMKIGAAFTLISMYSERPGALIRSLLNDPDIEAVIIDVGSMLNGIPVMERRGDKAQEEMEGLMRILKTARESSKGKTPFVDSRAYGLRITDMSTLVSAVITIEAQIWILIAKAVTAPDTAEESETRRWAKYVQQKRVNPFFALTQQWLTEMRNLLSQSLSVRKFMVEILMEVKKGGSAKGRAVEIISDIGNYVEETGMAGFFATIRFGLETRYPALALNEFQSDLNTIKGLMLLYREIGPRAPYMVLLEESIQTKFAPGGYPLLWSFAMGVATTIDRSMGALNINRGYLEPMYFRLGQKSARHHAGGIDQNMANKLGLNSDQVAELAAAVQETSVGRQDNNMQAREAKFAAGGVLVGGGEQDIDEEEEPIEHSGRQSVTFKREMSMSSLADSVPSSSVSTSGGTRLTNSLLNLRSRLAAKAIKESTAQSSSERNPPNNRPQADSGRKDDQEPKPAQNDLDFVRADV
notes: copies: 28
With B1 the “stoichiometry N” value was 14 protomers per ring and 28 protomers per double-ring assembly.
